Assay results taken from US20140080161A1, “PHOSPHATASE COUPLED KINASE ASSAY” (RESEARCH AND DIAGNOSTIC SYSTEMS, INC., priority 2010, published 2014).
One block for each molecule: values may come before it.

Key:
[1] = Phosphatase coupled kinase assay, ERK1 specific activity; type: biochemical; conditions: 4 mM ATP, 4 mM MBP peptide
Method: (§1) The kinase reactions were carried out in 50 μL of kinase assay buffer including 25 mM Tris, 150 mM NaCl, 5 mM MgCl2, and 5 mM CaCl2 at pH 7.5 in a 96 well plate at room temperature. Each reaction was stopped with 30 μL of Malachite Reagent A and 100 μL of water. The color was developed with 30 μL Malachite Reagent B. The plate was read at 620 nm with a multi-well plate reader. If the predicted phosphate content in the reaction was above 4,000 pmol, the reaction was diluted before phosphate detection.
A series of reactions were performed with extracellular signal-regulated kinase 1 (ERK1) as the kinase. Various amounts of ERK1 (0, 0.1, 0.2, 0.4 and 0.8 μg) were combined with 4 mM ATP, 4 mM MBP peptide acceptor substrate, and 0.2 μg CD39L2. […] The reactions were stopped after 20 minutes, the Malachite Green assay was performed as described above, and the OD was measured at 620 nm. The results are shown in FIG. 10, wherein the OD reading is plotted against the quantity of ERK1. This plot was then used to determine the specific activity of ERK1. The specific activity was calculated by first determining the slope of the curve (0.7728 OD/μg), which was then multiplied by a conversion factor (4081 pmol/OD) and divided by the reaction time (20 minutes) (0.7728 OD/μg×4081 pmol/OD/20 min=157.69 pmol/min/μg). The coupling efficiency of rhCD39L2 in 4 mM ATP was predicted to be 0.4 based on the data of Example 3 (FIG. 5). The specific activity of the ERK1 was then adjusted for the coupling efficiency and was calculated to be 394.22 pmol/min/μg. (157.69 pmol/min/μg/0.4=394.22 pmol/min/μg)

[2] = Specific activity of the phosphatase (free phosphate released per time per amount); type: biochemical
Source text: Phosphatases used in embodiments of the invention have a high specific activity on ADP. The specific activity of the phosphatase used in the examples is the amount of free phosphate released from a substrate per unit time and per amount of phosphatase under a given set of conditions, and may be determined at the rising phase of an enzymatic dose curve, such as the hydrolysis curve as described above. In some embodiments, the phosphatase has a specific activity of greater than 100 pmol/min/μg under optimal conditions. The conditions may include optimal pH, salt concentrations, and the presence of any cofactor. In other embodiments, the phosphatase has a specific activity of greater than 1,000 pmol/min/μg. In still other embodiments, the phosphatase has a specific activity of greater than 20,000 pmol/min/μg. When phosphatases having lower specific activity are used, larger amounts of such phosphatases or longer reaction times may be used to achieve the same level of hydrolysis as can be achieved with a phosphatase having higher specific activity.

[3] = ADP hydrolysis curve with increasing amounts of phosphatase, free phosphate by Malachite Green; type: biochemical; conditions: 5 minutes
Source text: The relative activity of the phosphatase on ADP and ATP can be measured by creating hydrolysis curves for ADP and ATP. For example, such hydrolysis curves may be created by performing a series of reactions separately combining set quantities of ADP or ATP with varying quantities of phosphatase and detecting the free phosphate produced. An example of such curves is described in Example 1 below. The resulting phosphate levels (or OD readings, which directly correspond to the phosphate levels) can be plotted against the amount of phosphatase used. The phosphate level or OD readings can be compared at the same quantity of the phosphatase to determine the relative activity of the phosphatase for ADP as compared to ATP. […] The amount of phosphatase to be used for kinase reactions is preferably selected from within the rapidly rising portion of the ADP hydrolysis curve. In addition, the relative activity of the phosphatase for ADP versus ATP is preferably compared within this rapidly rising portion of the hydrolysis curve, at or near the steepest portion of the curve. At phosphatase levels below this range, the generated signals are weak, while at phosphatase levels above this range, the ADP hydrolysis approaches completion, which could underestimate the activity of the phosphatase on ADP due to exhaustion of the substrate.
as §1
In this experiment, the relative activity of rhCD39L2 on ADP and ATP was determined. In a first series of reactions, 100 nmol of 2 mM ATP was combined with increasing amounts of rhCD39L2 (0.03125 μg, 0.0625 μg, 0.125 μg, 0.25 μg, 0.5 μg) for 20 minutes. Likewise in a second series of reactions, 100 nmol of 2 mM ADP was combined with the same increasing amounts of rhCD39L2 for 20 minutes. The reactions were stopped after 20 minutes and free phosphate was measured using the Malachite Green assay as described above.
The relative activity of recombinant mouse CD 39L2 (rmCD39L2) on ADP and ATP was determined in a series of reactions similar to Example 1. 100 nmol of 2 mM ATP was combined with increasing amounts of rmCD39L2 (0.03125 μg, […], 0.125 0.25 μg, 0.5 μg). Likewise in a second series of reactions, 100 nmol of 2 mM ADP was combined with the same increasing amounts of rmCD39L2. The reactions were stopped after 5 minutes and free phosphate was measured using the Malachite Green assay as described above.
The experiment of Example 1 was repeated using recombinant human CD39L4 (rhCD39L4). 100 nmol of ATP (2 mM) was combined with increasing amounts of rhCD39L4 (0.03125 μg, 0.0625 μg, 0.125 μg, 0.25 μg, 0.5 μg, 1.0 μg). Likewise in a second series of reactions, 100 nmol of ADP (2 mM) was combined with the same increasing amounts of rhCD39L4 for 5 minutes. The reactions were stopped after 5 minutes and free phosphate was measured using the Malachite Green assay as described above. […] As such, the necessary preference of the phosphatase for ADP as compared to ATP is present.

[4] = enzyme as obtained from R&D Systems; cited from earlier work

slope of the curve OD versus quantity of ERK1 ([1]; 0.2 μg CD39L2, 20 minutes): 0.7728 OD/μg
Molecule: ERK1: extracellular signal-regulated kinase 1 from R&D Systems
specific activity before coupling efficiency adjustment ([1]; 20 minutes): 157.69 pmol/min/µg | specific activity adjusted for the coupling efficiency ([1]; coupling efficiency 0.4): 394.22 pmol/min/µg

level of activity compared with rhCD39L2 ([3]; Example 9, up to 1.0 μg): lower level of activity than rhCD39L2
B1: rhCD39L4: recombinant human CD39L4 phosphatase (protein, UniProt O75356 25-428, looked up)
Nucleoside diphosphate …: NQQTWFEGIFLSSMCPINVSASTLYGIMFDAGSTGTRIHVYTFVQKMPGQLPILEGEVFDSVKPGLSAFVDQPKQGAETVQGLLEVAKDSIPRSHWKKTPVVLKATAGLRLLPEHKAKALLFEVKEIFRKSPFLVPKGSVSIMDGSDEGILAWVTVNFLTGQLHGHRQETVGTLDLGGASTQITFLPQFEKTLEQTPRGYLTSFEMFNSTYKLYTHSYLGFGLKAARLATLGALETEGTDGHTFRSACLPRWLEAEWIFGGVKYQYGGNQEGEVGFEPCYAEVLRVVRGKLHQPEEVQRGSFYAFSYYYDRAVDTDMIDYEKGGILKVEDFERKAREVCDNLENFTSGSPFLCMDLSYITALLKDGFGFADSTVLQLTKKVNNIETGWALGATFHLLQSLGISH
specific activity on ADP [2]: > 1,000 pmol/min/μg

times greater activity with ADP than with ATP ([3]; phosphatase at 0.25 μg): 30-40 times
B2: rmCD39L2: recombinant mouse CD39L2 phosphatase (protein, UniProt Q3U0P5 1-455, looked up)
Ectonucleoside triphosphate …: MRKIPNHGTLRMTKVAYPLGLCVGLFIYVAYIKWHRASAAQAFFTIAGAASGARWTQQAFSSPGSAARGHEVFYGIMFDAGSTGTRIHVFQFARPPGETPTLTHETFKALKPGLSAYADDVEKSAQGIQELLNVAKQHIPYDFWKATPLVLKATAGLRLLPGEKAQKLLQKVKEVFKASPFLVGDDCVSIMNGTDEGVSAWITVNFLTGSLKTPGSSSVGMLDLGGGSTQITFLPRVEGTLQASPPGHLTALQMFNRTYKLYSYSYLGLGLMSARLAILGGVEGKPAENDKELVSPCLSPRFRGEWEHAEVTYRISGQKAVGLYELCASRVSEVLRNKVHRTEEAQHVDFYAFSYYYDLAASFGLIDAEKGGSLVVGDFEIAAKYVCRTLETQPPSSPFACMDLTYISLLLHEFGFPGDKVLKLARKIDNVETSWALGAIFHYIDSLKRQKVPAL
specific activity [4]: > 100,000 pmol/min/μg
